The numbers were not newly measured in US9504757B2, “Site-specific GLP-2 conjugate using an immunoglobulin fragment” (HANMI SCIENCE CO., LTD., priority 2011, dated 2016), which cites them from elsewhere.

For this data set the following is noted: inactivation by DPP IV; Bolette H. et al. 2000.

With “HADGSFSDEMNTILDNLAARDFINWLIQTKITD [GLP-2]”, the in vivo half-life was ≤ 7 min.
